In patent US20220267469A1 (LIPUM, published 2022):
Values belong to the binder of their own block, whether it stands above or below them.

B3: Mouse BSSL, recombinant (enzyme)
chain: AKLGAVYTEGGFVEGVNKKLSLLGGDSVDIFKGIPFATAKTLENPQRHPGWQGTLKATNFKKRCLQATITQDNTYGQEDCLYLNIWVPQGRKQVSHNLPVMVWIYGGAFLMGSGQGANFLKNYLYDGEEIATRGNVIVVTFNYRVGPLGFLSTGDANLPGNFGLRDQHMAIAWVKRNIAAFGGDPDNITIFGESAGAASVSLQTLSPYNKGLIRRAISQSGMALSPWAIQKNPLFWAKTIAKKVGCPTEDTGKMAACLKITDPRALTLAYKLPVKKQEYPVVHYLAFIPVIDGDFIPDDPINLYNNTADIDYIAGINNMDGHLFATIDVPAVDKTKQTVTEEDFYRLVSGHTVAKGLKGAQATFDIYTESWAQDPSQENMKKTVVAFETDVLFLIPTEIALAQHKAHAKSAKTYSYLFSHPSRMPIYPKWMGADHADDLQYVFGKPFATPLGYRPQDRAVSKAMIAYWTNFARSGDPNMGNSPVPTHWYPYTLENGNYLDITKTITSASMKEHLREKFLKFWAVTFEVLPTVTGDQDTLTPPEDDSEVAPDPPSDDSQVVPVPPTDDSVEAQMPATIGF
notes: Bought (R&D Systems, Cat. no 5658-CE); also called mBSSL; murine BSSL

Tests used:
Biotinylated human BSSL [1] = molecular target: T1, Biotinylated human BSSL (human, UniProt P19835 21-753, Biotinylated on glycosacarides, 30-40 biotin/BSSL); assay: flow cytometry displacement assay; 0.5 ug antibody, 1 ug b-hBSSL
T1 construct: hBSSL biotinylated in house; also called b-hBSSL; human BSSL-biotin
T1 sequence: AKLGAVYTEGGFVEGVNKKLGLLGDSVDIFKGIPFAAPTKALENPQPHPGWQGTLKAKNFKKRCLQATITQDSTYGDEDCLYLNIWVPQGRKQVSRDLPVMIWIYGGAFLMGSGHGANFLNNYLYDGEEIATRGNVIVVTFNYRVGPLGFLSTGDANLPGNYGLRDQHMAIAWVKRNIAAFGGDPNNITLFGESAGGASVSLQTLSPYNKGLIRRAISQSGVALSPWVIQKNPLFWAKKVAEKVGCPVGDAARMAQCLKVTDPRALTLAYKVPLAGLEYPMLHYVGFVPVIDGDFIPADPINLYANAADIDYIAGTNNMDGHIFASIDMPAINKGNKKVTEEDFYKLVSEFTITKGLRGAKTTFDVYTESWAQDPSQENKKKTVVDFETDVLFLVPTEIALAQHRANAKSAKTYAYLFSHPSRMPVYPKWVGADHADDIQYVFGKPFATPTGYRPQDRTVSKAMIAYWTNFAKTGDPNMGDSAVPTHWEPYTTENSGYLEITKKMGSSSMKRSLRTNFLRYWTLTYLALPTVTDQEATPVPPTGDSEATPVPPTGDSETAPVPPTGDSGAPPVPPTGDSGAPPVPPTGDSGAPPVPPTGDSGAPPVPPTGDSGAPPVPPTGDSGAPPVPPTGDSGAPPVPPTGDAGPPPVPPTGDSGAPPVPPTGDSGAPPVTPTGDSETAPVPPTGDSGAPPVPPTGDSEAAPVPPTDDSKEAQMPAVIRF
Protocol: (§1) The 28 BSSL-specific hIgG4 antibodies and the five reference antibodies at different concentrations (ranging from 0.5 μg to 3.0 μg per reaction; see Table 10) were added to b-hBSSL (1 μg per reaction, see Table 2) in round-bottom polystyrene tubes, lx PBS (pH 7.4) was added to a final volume of 20 μl and the antibody/b-hBSSL mixtures were incubated for 30 min. at +4° C. to facilitate binding of antibodies to BSSL. Buffy coat (50 μl) was then added to each antibody/b-hBSSL mixture and incubation continued for another 30 min at +4° C. Thereafter, 2 ml of FACS lysing solution (BD Biosciences) was added and the cells were incubated for 10 min at room temperature in order to lyse erythrocytes and fix the white blood cells. The cells were then centrifuged for 5 min. at 200×g, the resulting pellets were washed by adding 2 ml of FACS buffer (1×PBS supplemented with 1% FCS and 0.1% NaN3) and centrifuged again. Finally, the supernatants were discarded and the cells were resuspended in the last drop of liquid, approximately 50 μl.
(§2) 5 μl of BV421-labelled anti-human CD14 (BD Biosciences) and 5 μl of BB515-labelled streptavidin (BD Biosciences) was added to each tube and incubated for 30 min, at +4° C., protected from light. Thereafter, cells were washed twice with FACS buffer, resuspended in 500 μl FACS buffer, and run on BD LSRII flow cytometer (BD Biosciences). Finally, data were analyzed using FlowJo software (BD Biosciences).

Mouse BSSL, recombinant [2] = molecular target: B3; assay: SPR steady state, hIgG4 S228P captured by anti-Fab
In short: (§3)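 hIgG4 S228P captured on an immobilized anti-Fab surface; five BSSL concentrations injected, 1:5 dilutions from 50 nM (human) or from 500 nM (mouse). Human BSSL: single-cycle kinetics, 1:1 fit. Mouse BSSL: KD from steady-state equilibrium response versus concentration. Regeneration with 10 mM glycine-HCl pH 2.1.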

[3] = molecular target: T2, Human BSSL (bile salt-stimulated lipase), native (human, UniProt P19835 21-753); assay: SPR single cycle kinetics, captured by anti-Fab, Absolute Antibody batch
T2 construct: Native full-length protein purified from human milk (Astra Hässle AB); also called hBSSL; non-biotinylated human BSSL
T2 sequence: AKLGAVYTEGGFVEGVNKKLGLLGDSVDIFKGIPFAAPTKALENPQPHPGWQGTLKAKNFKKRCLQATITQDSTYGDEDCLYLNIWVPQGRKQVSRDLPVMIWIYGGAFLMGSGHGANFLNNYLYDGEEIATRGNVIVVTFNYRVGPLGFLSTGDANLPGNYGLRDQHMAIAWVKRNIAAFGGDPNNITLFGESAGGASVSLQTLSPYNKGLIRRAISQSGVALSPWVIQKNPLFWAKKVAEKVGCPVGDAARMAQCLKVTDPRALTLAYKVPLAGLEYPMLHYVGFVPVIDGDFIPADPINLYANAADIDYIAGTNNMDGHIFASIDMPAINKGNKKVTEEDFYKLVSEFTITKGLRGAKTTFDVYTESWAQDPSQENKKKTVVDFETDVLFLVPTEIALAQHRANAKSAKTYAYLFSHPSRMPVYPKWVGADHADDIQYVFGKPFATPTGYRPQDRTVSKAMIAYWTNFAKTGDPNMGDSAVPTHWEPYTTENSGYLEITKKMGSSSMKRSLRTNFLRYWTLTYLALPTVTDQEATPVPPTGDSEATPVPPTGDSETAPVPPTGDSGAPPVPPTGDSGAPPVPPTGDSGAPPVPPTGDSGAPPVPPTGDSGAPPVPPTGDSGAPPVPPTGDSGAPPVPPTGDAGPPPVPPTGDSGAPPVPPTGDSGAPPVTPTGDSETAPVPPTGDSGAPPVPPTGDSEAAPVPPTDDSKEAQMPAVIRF
Protocol: (§4) Kinetic parameters of the hIgG4 S228P clones were determined by SPR using BIACORE® T200 (GE Healthcare). An anti-Fab antibody (GE #28958325) was immobilized on a CM5 S sensor chip by primary amine coupling using NHS-EDC chemistry. The hIgG4 antibodies were captured by the anti-Fab antibody, and subsequently, five different concentrations of hBSSL (1:5 dilutions, 0.08-50 nM) or mBSSL (1:2 dilutions, 50-800 nM) were injected over the surface. The sensor chip surface was regenerated with 10 mM glycine-HCl pH 2.1. For binding to human BSSL, single cycle kinetic data was fitted to a 1:1 binding model and kinetic parameters were retrieved using software BlAevaluation. For mouse BSSL, a steady state analysis was performed by plotting the response level at equilibrium against each concentration, and KD values were retrieved by the BlAevalution software.

Biotinylated human BSSL [4] = molecular target: T1, Biotinylated human BSSL; assay: flow cytometry displacement assay; 2.0 ug antibody, 1 ug b-hBSSL
Protocol: as §1, §2

[5] = molecular target: T2, Human BSSL (bile salt-stimulated …); assay: SPR single cycle kinetics, hIgG4 S228P captured by anti-Fab
In short: as §3

Biotinylated human BSSL [6] = molecular target: T1, Biotinylated human BSSL; assay: flow cytometry displacement assay; 1.0 ug antibody, 1 ug b-hBSSL
Protocol: as §1, §2

Mouse BSSL, recombinant [7] = molecular target: B3; assay: SPR steady state, captured by anti-Fab, Absolute Antibody batch
Protocol: as §4

Biotinylated human BSSL [8] = molecular target: T1, Biotinylated human BSSL; assay: flow cytometry displacement assay; 3.0 ug antibody, 1 ug b-hBSSL
In short: (§5)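 Antibody (0.5–3.0 μg per reaction) preincubated with 1 μg biotinylated human BSSL in PBS pH 7.4, 30 min at 4 °C, then with human buffy coat 30 min at 4 °C. After erythrocyte lysis/fixation, bound BSSL on CD14+ monocytes detected by labelled streptavidin via flow cytometry.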

[9] = molecular target: T2, Human BSSL (bile salt-stimulated …); assay: cell-based or functional assay
[10] = molecular target: T2, Human BSSL (bile salt-stimulated …); assay: cell-based or functional assay; remark: listed apart in the source
Biotinylated human BSSL [11] = molecular target: T1, Biotinylated human BSSL; assay: flow cytometry displacement assay; 1.5 ug antibody, 1 ug b-hBSSL
In short: as §5

AS20 scFv = assay: HTRF competition against 5 nM b-hBSSL for 2.5 nM AS20 scFv
Sequence of AS20 scFv (VH, as listed by the source): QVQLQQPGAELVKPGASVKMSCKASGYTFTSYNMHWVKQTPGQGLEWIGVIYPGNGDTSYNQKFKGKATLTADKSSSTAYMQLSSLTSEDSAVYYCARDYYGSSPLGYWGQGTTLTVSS
Protocol: In order to study the interaction between AS20 scFv and native mouse BSSL, a competition assay was developed. Detection of binding was enabled through donor molecule terbium-conjugated α-FLAG antibody (Cisbio #611FG2TL), which interacts with the C-terminal located FLAG-tag of the scFv, and acceptor molecule streptavidin-conjugated XL665 (Cisbio #610SAXL), which interacts with the biotin-moieties on human BSSL.
2.5 nM of AS20 scFv was pre-incubated for 2 hours with the mouse or human orthologue of BSSL, after which 5 nM b-hBSSL and the FRET donor and acceptor molecules were added. The mixture was finally incubated at room temperature for 16 hours and the binding signal (665 nm) and background/noise signal (615 nm) was measured using EnVision (PerkinElmer). The experimental output, Delta R, was calculated for each point using four replicates and two blanks.

percentage reduction of b-hBSSL binding to CD14+ monocytes (Biotinylated human BSSL [1]): 19%
Kd (Mouse BSSL, recombinant [2]): 161 nM
Kd [3]: 0.6 nM
percentage reduction of b-hBSSL binding to CD14+ monocytes (Biotinylated human BSSL [4]): 58%
Kd [5]: 0.6 nM
percentage reduction of b-hBSSL binding to CD14+ monocytes (Biotinylated human BSSL [6]): 21%
Kd (Mouse BSSL, recombinant [7]): 223 nM
B1: AS20 hIgG4 S228P (antibody)
heavy: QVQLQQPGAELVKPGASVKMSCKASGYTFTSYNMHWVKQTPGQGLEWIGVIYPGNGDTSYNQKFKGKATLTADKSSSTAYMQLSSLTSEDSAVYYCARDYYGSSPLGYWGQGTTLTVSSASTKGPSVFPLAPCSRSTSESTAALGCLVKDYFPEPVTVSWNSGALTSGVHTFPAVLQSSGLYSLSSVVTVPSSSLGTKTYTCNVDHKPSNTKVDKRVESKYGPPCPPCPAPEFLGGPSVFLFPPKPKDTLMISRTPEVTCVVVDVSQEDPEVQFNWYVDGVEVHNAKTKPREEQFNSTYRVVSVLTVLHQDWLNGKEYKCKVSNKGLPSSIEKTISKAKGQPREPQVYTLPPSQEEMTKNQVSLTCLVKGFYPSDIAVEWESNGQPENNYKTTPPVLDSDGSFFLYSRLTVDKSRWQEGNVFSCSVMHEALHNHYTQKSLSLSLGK
light: QIVLTQSPAVMSASPGEKVTMTCSASSSISYMHWYQQKPGTSPKRWIYDTSKLASGVPARFSGSGSGTSYSLTISSMEAEDAATYYCHQRSSYPTFGGGTKLEIKRTVAAPSVFIFPPSDEQLKSGTASVVCLLNNFYPREAKVQWKVDNALQSGNSQESVTEQDSKDSTYSLSSTLTLSKADYEKHKVYACEVTHQGLSSPVTKSFNRGEC
notes: also called AS20 IgG4; AS20 (parental clone)

percentage reduction of b-hBSSL binding to CD14+ monocytes (Biotinylated human BSSL [1]): 1%
Kd (Mouse BSSL, recombinant [2]): 24 nM
percentage reduction of b-hBSSL binding to CD14+ monocytes (Biotinylated human BSSL [8]): 68%
BSSL hydrolysis of triglycerides, relative value (no antibody = 100%); 0.19 ug antibody [9]: 109%
BSSL hydrolysis of triglycerides, relative value (no antibody = 100%); 0.38 ug antibody [9]: 114%
BSSL hydrolysis of triglycerides, relative value (no antibody = 100%); 0.75 ug antibody [9]: 125%
BSSL hydrolysis of triglycerides, relative value (no antibody = 100%); 1.5 ug antibody [9]: 112%
BSSL hydrolysis of triglycerides, relative value (no antibody = 100%); 3.0 ug antibody [9]: 120%
BSSL hydrolysis of triglycerides, relative value (no antibody = 100%); 6.0 ug antibody [9]: 113%
BSSL hydrolysis of cholesterol esters, relative value (no antibody = 100%); 0.19 ug antibody [10]: 96.2%
BSSL hydrolysis of cholesterol esters, relative value (no antibody = 100%); 0.38 ug antibody [10]: 98.2%
BSSL hydrolysis of cholesterol esters, relative value (no antibody = 100%); 0.75 ug antibody [10]: 92.2%
BSSL hydrolysis of cholesterol esters, relative value (no antibody = 100%); 1.5 ug antibody [10]: 95.2%
BSSL hydrolysis of cholesterol esters, relative value (no antibody = 100%); 3.0 ug antibody [10]: 93.7%
BSSL hydrolysis of cholesterol esters, relative value (no antibody = 100%); 6.0 ug antibody [10]: 90.2%
Kd [3]: 0.6 nM
Kd [5]: 0.7 nM
percentage reduction of b-hBSSL binding to CD14+ monocytes (Biotinylated human BSSL [11]): 60%
percentage reduction of b-hBSSL binding to CD14+ monocytes (Biotinylated human BSSL [6]): 9%
Kd (Mouse BSSL, recombinant [7]): 65 nM
B2: S-SL048-11 hIgG4 S228P (antibody, V domains shown)
VH: QVQLVQSGAEVKKPGASVKVSCKASGYTFTSYNMHWVRQAPGQGLEWMGVIYPGDGATSYAQKFKGRVTMTRDTSTSTVYMELSSLRSEDTAVYYCARDYYGSSPLGYWGQGTLVTVSS
VL: DIQMTQSPSSLSASVGDRVTITCSASPSISYMNWYQQKPGKAPKLLIYATSSLASGVPSRFSGSGSGTDFTLTISSLQPEDFATYYCHQRSSYPTFGQGTKLEIKR
notes: also called clone 11; mAb11

Binder: B3
IC50 (AS20 scFv): 150 to 200 nM
